Our source for the protein production values is a protein production outcome set (Wang et al. 2014).

A short description of the series: label from the status in PepcDB records.
As for “MQFTDFSLDQRLLQSLKHMGIATPTAIQEQALPIALAGKDLMASSKTGSGKTLAFLLPALQRVISTRALSKRDPRVLILLPTRELAHQVYSQLRLLVANTQYKAISVLGGENFNDQAKALAKEPHFIVATPGRIADHLEQKNLFLNGLELLILDEADRMLDLGFAPQLKAINEAADHKRRQTLMFSATLDHSEINEIAAALLKNPLHVAIGTAHAEHQDISQRIYLCDHLDHKEALLSRLLSDESHKQVIIFTATRADTERLAAKLSAQGFATAALSGELKQAARNQIMDQFARGQQQILVTTDVASRGLDLLNVSLVINFDMPKFAEEYVHRIGRTGRAGAKGDAISLVGPKDWDSFKKVQLFLRKTFEISVIKGLEAKFTGLKDKPKSVATKGVVKANTKGKSKPKPNVVKAAPSRDKRFITGVDVGDAPMRKKPKAQLLQESDDEI”, the protein production entry was “failed”.
The result for “MSDEQHDSVWPPPGLDFSKPTIARVYDALLGGKDNFEADRALADYACKHIPGLKESAIENRKVLVRGVRFLAGEAGISQFLDLGSGLPTVQNTHEVAQSVNPDARVVYVDIDPMVLTHGRALLAKDPNTAVFTADVRDPEYILNHPDVRRMIDFSRPAAIMLVGMLHYLSPDVVDRVVGAYRDALAPGSYLFMTSLVDTGLPAQQKLARITRENLGEGWARTPEEIERQFGDFELVEPGVVYTALWRPDEPVDPDNLSPGEQLGMAGIGRKKA” reads “not failed”; that for “MFRIIQPHRWKLAVLMIAANLGLLAFLAFGTIKHVSEWQWLDIVGEGGSALLSLVWLFLVFKSRPAGRVTNYLSVGLSCVFFSWWIDALDEFIRLPAEIEWDHWLESGPMPVGLILLTLGIYHWHREQLAISAQMEKRERGFREHRLYDKLTPLGSADYLKRQLIVSLEQSLCQQQPLSLLALDLDGFSTINNAFGHAEGDEVLSAISHLLVLNLRRQDLLCRLAGDRFVVLMPNTGESQAKLLALELQQAVASLAHKTRQQGERLHLSASVAVVMALNETPDNLLRRLNLSLARARRPLTRTA”, “failed”; that for “MSLSQDGLLGEVLSEGVLTLTLGRAPAHPLSRAMIAALHDALRRAMGDDHVHVLVIHGPGRIFCAGHDLKEIGRHRADPDEGRAFVTDLFEACSALMLDLAHCPKPTIALVEGIATAAGLQLMAACDLAYASPAARFCLPGVQNGGFCTTPAVAVSRVIGRRAVTEMALTGATYDADWALAAGLINRILPEAALATHVADLAGALAARNQAPLRRGLETLNRHLELPLEQAYALATPVMVEHFMDPGRRHLDWIDEGHHHHHH”, “not failed”.
The result for “MTQAKFVEGSILRHILVMSSTAAVGISALFVVDLLDIFFLSLLGEHELAAAVGYAGSISFFTTLIGIGLSIALGALVSRSIGAKDVELAKRLLLNSAVVTTLISVFVSIVVTTFIPELVTLVGASGHTAELAESYLYILVPSLPFICLAMALGGALRSVGDAKLSMMSTLAGGGVNAVLDPIFIFLFAMGIEGAALASVLARITVFVIAGRGVMVKHQLLGKFNRSDFKADLKPIFAIAGPAILTNIATPIGNAFVTRAIADFGDAYVAGWAVLGRLVPVTFGMIFALSGAIGPIVGQNFGAGRFDRVRESLTKAIQFCTLYVVVMSLLLFLLKSQIVSLFDMKGDSAALIEFFCSYIAVFFIFSGILFVANASFNNLGKAKYSTLFNVGKATLGTVPFVYVGAQLGGVYGVLIGQVIGSILFGVVGVWVAYRLVDKVVLTSTGHGVVSLATDADELMTDTVAPSATSPLSSSCAQMAQLTEEQEMEPVLPLIGQQDNSRR” reads “failed”; that for “MLENIRIVLIETSHSGNIGSAARAMKTMGLTQLCLVSPKSVDEQSYALSAGAENIVKNARVVDSFDEAVDDCPLVIGTSARLRHLQNTLIEPRECAEKVVAYKGKIAIVFGRERIGLTNEELLKCHYHLNIPANPDYSSLNLAMAVQLVSYELRMAFLVQNNKKNSLSLIEKNYPTTDQLAYFFDYTERIYQSLGFIQNQGVMRKLKRLYYRAKLEKNELNILNGMLSAVEKRIDLTKEDN”, “not failed”.
With “KNIEETELVVEEMLEQYPNGKIVRLLFHGEQAKLPIISHIVQEYQVEVSIIQGNIQQTKQGAVGSLYIQLLGEEQNILAAIEGLRKLRVETEVIGNE”, the protein production entry is on record as “not failed”.
As for “MKVDREKYGSEKIAKLKILEELKKENPNKKIIAIGNGNNDELLLKNADLGICVIGDEGAWSKTILSSDIVVKDINDALDLLLNENRLKATSRD”, the protein production result is “failed”.
The result for “MSDLGDFADHGRDDDERGGDDDPAPADDDFDRPTLEATGSDDGLGALAVSEGLRIHEDGQETALKAYVTAGNRAAVRLGTYLVAPYPGGETLFCKITGLEYVQAFESDDATEIHARRAMRSDGVDEADYKFLAELDPVAVLSDEGDDITRRMPDRVPKPETVVRAADDAAEIKAGLKIPADGVFLGHLSVGGEKVRTAADPPTIDYRVKDGYEAGDPLVFRHTLIAGGTGSGKTHAAKNVLRQYLHEDRRYPVDSGGPERRMAVVQFDPQDEYAQMHDDNPDADASDRRQWETQGLAYGGHDDTVAFVPTVGSASYAADHHAAEQVAFTVPFSMVRDNPWLVASSGLNDNQYGALHLLLDRFFGQYGESGTYREFCAFLDDPALKEELDESGRVHEATYEAVLRRVNGMPNGLFDQDARSITALVEDREFVQPGRLSVVPTYHISNSRAAETVVLAVSSLLVDQKLSNDPRYDAIKRTPLLVGMDEAHNFLSDADSVQARKVVGKFTEAAKQGRKERLGLFLITQDPQDIAGPVFKQVNTTVVLNLGDEDAIQAVNIPATLQSKVPYMNTGQMVVYSPDNSEPVEVQGLATCVTRHGRD” reads “failed”; that for “MKRFNVLKYIRTTKANIQTIAMPLTTKPLSLKINAALFDVDGTIIISQPAIAAFWRDFGKDKPYFDAEHVIHISHGWRTYDAIAKFAPDFADEEYVNKLEGEIPEKYGEHSIEVPGAVKLCNALNALPKEKWAVATSGTRDMAKKWFDILKIKRPEYFITANDVKQGKPHPEPYLKGRNGLGFPINEQDPSKSKVVVFEDAPAGIAAGKAAGCKIVGIATTFDLDFLKEKGCDIIVKNHESIRVGEYNAETDEVELIFDDYLYAKDDLLKW”, “not failed”; that for “MQHFKTKIEHFQIYIYFSAIILGILIGTNFPGISSILETLVAICIAILMFSMFSQIPFFELQKRVLNLKFVTALIIANFVILPILVYFLISIFNISSSAILIGLFLVLLTPCIDYVIVFTALGKGNAQYMLISTPILFVLQILLLPLYLTMFLDKSILTIIDIEPFIHSFFTFIIIPLLLALTLQLLSKKYYVMSQTLKATSWLPELFMSLVLFTVVGSQINKIANDLSVVVKVAPIYIIFMLIAPFIGYFTGKLFHLKPSILRTLAFSTSTRNALVVLPLALSLPDQWVTITTTVIITQTLIELIGELFYIKMIPSLIKS”, “failed”.
To “MDNWQDITDDRLVRPIHPGEVIADILDDLDINTANFAEILGVSNQTIQEVINGQRSITVDIAIRLGKALGNGPRLWLNLQQKVDLWYALQSHKEEYEQVMTLV” belongs “not failed”.
With “KPIKIRGPSHCAGCKEEIKHGQSLLALDKQWHVSCFKCQTCSVILTGEYISKDGVPYCESDYHAQFG”, the protein production entry is listed as “not failed”.
The result for “MKFLELNKKRHATKHFTDKLVDPKDVRTAIEIATLAPSAHNSQPWKFVVVREKNAELAKLAYGSNFEQVSSAPVTIALFTDTDLAKRARKIARVGGANNFSEEQLQYFMKNLPAEFARYSEQQVSDYLALNAGLVAMNLVLALTDQGIGSNIILGFDKSKVNEVLEIEDRFRPELLITVGYTDEKLEPSYRLPVDEIIEKR” reads “not failed”; that for “MTSTHQAAHRTGSTMRLRILIATDTYPPDVNGASYFTYRLATGLAERGHDVHVVCASASGPPRVEVQDGVVLHRMRSVPVLVHPTMRTALPLGLTGHIARIVDRLAPHVVHVQSHFTISRTALRCGRMAGVPVVLTNHFMPDNLFAHAHIPPRLHGVVGSLAWQDMIRVARTADYVTTPTQRAAELLASKGFTRTVEAVSCGIDLDRFRPRPQDRAQARAHFGLPDRETMVFVGRLDEEKRIDESIRALPVLLRHRDVQLVLAGTGQRREELERLARSLGVAERVHFLGFVPDDDLPLVYVAADLFVIGSVAELQSIATLEAMSTGLPVVAADALALPHLVRPGRNGYLYPPGDVAQLAQRLLDVLESPDRRTAMGRASRDIAQTHDHHRSLDRFEQIYTEVRPRSWTLSRSASPAARQRDTTVAA”, “failed”.
Take “MHEESGPSWGMRGLRKWLGTAPETRDELLKLVQDSRRFLEPDTVAMLEGVLDLPATKVREVMTPRTSIISLQEDDELLDILHVLIESAHSRFPVFSSDQPDNVVGILLAKDLLPFLTEPSAKVDVRALMRQPLFVPESARSDQVLRMLKHTQTHIAVVIDEYGTTSGLVTLEDILEEIVGEIEDEHDNVDEEAQYIVPDHAHTTANSWMVQALTPIEHFNTVLDADFSDDEVETVGGLLLQEIGLVSDLQGQVIELDDWQFTIIEADARTIHLIRAVHK”: the protein production entry is reported as “failed”.
With “MNSHFLTNDLILEVLSRLPLKSVARFHCVSKRWASMFGSPYFKELFLTRSSAKPRLLFAIVQNGVWRFFSSPRLEKSSSTLVATAEFHMKLSPNNLRIYHDNTPRYFSIGYASGLIYLYGDRYEATPLICNPNTGRYTILPKCYTYRKAFSFFGFDPIDKQYKALSMIYPSGPGHSKILTFGDGDMNWKKIKYRVLHDIYSQGICINGVLYYLGDTSDWDNDHDVTSGNVLVCFDLRSESFTFIGLECGQLINYKGKLAVIFWDDVDDDDVKDDAIDEMHVWVLEDVEKKEWSKYAYTWTEDKLYRSQVSVVGMTASGEIVFSMRKYTSEQPFYVYYFNPERNNLRRVEIQGFEAFTKFGTVYTFVDHVEDLNVYNLKHFKSVHPPSVQPEYDESDSESEEDREIII”, the protein production entry is listed as “failed”.
To “MAEPSQAPTPAPAAQPRPLQSPAPAPTPTPAPSPASAPIPTPTPAPAPAPAAAPAGSTGTGGPGVGSGGAGSGGDPARPGLSQQQRASQRKAQVRGLPRAKKLEKLGVFSACKANETCKCNGWKNPKPPTAPRMDLQQPAANLSELCRSCEHPLADHVSHLENVSEDEINRLLGMVVDVENLFMSVHKEEDTDTKQVYFYLFKLLRKCILQMTRPVVEGSLGSPPFEKPNIEQGVLNFVQYKFSHLAPRERQTMFELSKMFLLCLNYWKLETPAQFRQRSQAEDVATYKVNYTRWLCYCHVPQSCDSLPRYETTHVFGRSLLRSIFTVTRRQLLEKFRVEKDKLVPEKRTLILTHFPKFLSMLEEEIYGANSPIWESGFTMPPSEGTQLVPRPASVSAAVVPSTPIFSPSMGGGSNSSLSLDSAGAEPMPGEKRTLPENLTLEDAKRLRVMGDIPMELVNEVMLTITDPAAMLGPETSLLSANAARDETARLEERRGIIEFHVIGNSLTPKANRRVLLWLVGLQNVFSHQLPRMPKEYIARLVFDPKHKTLALIKDGRVIGGICFRMFPTQGFTEIVFCAVTSNEQVKGYGTHLMNHLKEYHIKHNILYFLTYADEYAIGYFKKQGFSKDIKVPKSRYLGYIKDYEGATLMECELNPRIPYTELSHIIKKQKEIIKKLIERKQAQIRKVYPGLSCFKEGVRQIPVESVPGIRETGWKPLGKEKGKELKDPDQLYTTLKNLLAQIKSHPSAWPFMEPVKKSEAPDYYEVIRFPIDLKTMTERLRSRYYVTRKLFVADLQRVIANCREYNPPDSEYCRCASALEKFFYFKLKEGGLIDK” belongs “failed”; to “MRTPRFLRAVHANRTTARDVSSLRLPLQPRRDRARPGAMRTGLQGSVGIQCQLQRQHCQRQVASHAHYCADRGAVHCDGIACLDRAIGFQQLQGALGLAQEMRARHDLLTRVAAFFDAVGLQTVECQLLWRPLFALALDQASEPQLQIRAPPLRIYARRFDRRCQCFFGVQQQGARQRSAAQIQHDTLRSEIGLRGARAFRCCEAAKGKQRGSADFQLAAEDETAELGGDLGRVAVRQQHQQVCIVLTQKCEDGNHAPLRRQPRIPLPLPNRQRLYVIGKLGMRERHCIRADQSDVLDILQGAKTLRNKIQVVSHGRGGLKSPSCESTMIGHPTPTPAQDSETQPSSQEHIPEKKPLPKEIGGRDGPEPTRYGDWEKNGRCIDF”, “failed”.
